Reference: the supplement of paper PMC9170038

Test system: MS2 coat protein
Experiment: apparent KD of MS2 coat protein; designed switch direction (-1 OFF switch, 1 ON switch): 1; higher = weaker reporter binding
In short: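 Stalled E. coli RNA polymerase transcribed designed RNA switches on Illumina chips, which were then titrated with SNAP-549-labelled MS2 coat protein, doubling from 0.7 or 1.5 nM to 3 µM. Steps lasted from 0.8–1.5 h at the lowest concentration to 10–20 min at the highest. The apparent KD is each design's median over clusters of curve-fitted normalised fluorescence.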

[1] = input ligand: microRNA oligo, concentration not stated
[2] = Eterna round: R95, input ligand: microRNA oligo, concentration not stated
[3] = Eterna round: R95, input ligand: FMN 200 uM
[4] = Eterna round: R95, input ligand: none

Sequence	apparent KD of MS2 coat protein (input ligand: FMN 200 uM) [nM]	apparent KD of MS2 coat protein [1] [nM]	apparent KD of MS2 coat protein (input ligand: none) [nM]	apparent KD of MS2 coat protein [2] [nM]	apparent KD of MS2 coat protein [3] [nM]	apparent KD of MS2 coat protein [4] [nM]
CCGAGUGGCGUACAGGAUAUGUUGCAUGGAACAUGAGGAUCACCCAUGUAUUUGCUCCCGCAUACGCAGAAGGGUGCGUCCUGGG [Arraquorso] (Eterna round: R96, puzzle: Same State 2)	25	31.4	46.9	–	–	–
CCGAUAAUUGGAGGAUAUGGAGCCUUAUUGGCUCCAGAAGGCUAUAAACAUGAGGAUCACCCAUGUCGGCGGUCUAAUGACCGA [Eli NG1ss - 50] (Eterna round: R96, puzzle: Same State NG 1)	28	36.6	60.4	–	–	–
CCGAUGUGGGUACAGGAUAUGUGGGCCUCCACAUGAGGAUCACCCAUGUCGGAGGCAAAGCGGCUACAGAAGGGUGCGAGCUCGA [Xeanza] (puzzle: Same State 2)	–	–	–	9.28	–	–
CCGAUUUAUGGAGGAUAUGGAGCCUUAUUGGCUCCAGAAGGCUAAUAACAUGAGGAUCACCCAUGUCGGCGGUCUAAUGACCGA [Eli NG1ss - 52] (Eterna round: R96, puzzle: Same State NG 1)	39.2	47.5	91.6	–	–	–
CCGGUUUAUGGAGGAUAUGGAGCCUUAUUGGCUCCAGAAGGCUAAACAUGAGGAUCACCCAUGUUACCGGCGGUCAAUAGACCG [Eli NG1ss - 60] (Eterna round: R96, puzzle: Same State NG 1)	11.8	20.5	23.1	–	–	–
CCUUGUAGCGGAGGAUAUGGGCCUCACUCAGUCAAAGAGUGAGAAACAUGAGGAUCACCCAUGUCCCAGAAGGCCGCUGCUUGG [Estiveveza] (Eterna round: R96, puzzle: Same State NG 2)	–	12.3	–	–	–	–
CGAUGAUACUUAGGAAAGAGAGUAGAGGAACAUGAGGAUCACCCAUGUAUGAGCUUUUUGCUCGUCAUGAACAGGAA [JR_SHM208a_Sub008] (puzzle: Sensor for hsa-mir-208a)	–	–	–	62.4	88.6	168
CGGCGCUGUCGAGAGGAUAUGCGGUGAUGGACAUGAGGAUCACCCAUGUUAGCGAUAGCAUUACGGUAGAAGGCUCUAUAGUUGC [Soteed Omei mod 9] (puzzle: Same State 2)	–	–	–	248	–	–
CGGCUUGUACAUGAGGAUCACCCAUGUAUGUACAAGUUUUUGCUCGUCUUAUAAAUACGAUCUACCGAAAGGUAGAU [BIOPHYS241_ElaineNg_1] (puzzle: Sensor for hsa-mir-208a version 2)	–	–	–	18.7	276	236
CGGGAGAUCGUAGGAUAUCUAGGAUAUGAACGAGGAUCACCCGAGCAGCAUCAGCGCAUCAGAGGAGAGAAGGACGAUCAUGCG [pwkr ssNG2 2F5 2FMN.6] (Eterna round: R96, puzzle: Same State NG 2)	751	31.7	741	–	–	–
CGGGUACAUGAGGAUCACCCAUGUGGGAGGGAUGCAGGAUAUGUGGGAAAAGGGUAUGUAACAGAAGGGCAAGGAG [JR_SS!_Sub014] (puzzle: Same State 1)	–	–	–	31.8	30.8	45.1
CGUAGGUAGCUGGAGGAUAUUCGAGUGGUAACAUGAGGAUCACCCAUGUGGAGAGAGGUACAUGAGGAGAAGGCUAGCUGCCUGC [JL-ss2-3.14 JL mod] (puzzle: Same State 2)	–	–	–	22	13.4	27.1
CGUAGGUGGCUGGAGGAUAUUCGAGUGGUAACAUGAGGAUCACCCAUGUGUCGCGCGGUACAUGAGGAGAAGGCUAGCGGCCUGC (puzzle: Same State 2)	–	–	–	118	20.8	250
CGUCCAGCCUGAGCUGGACAAAAGCAUGUACAUGAGGAUCACCCAUGUUCAUGUACAAGCUUUUUGCUCGUCUUAUC [salish99_208a_r3_055] (puzzle: Sensor for hsa-mir-208a)	–	–	–	14.4	597	587
CGUCCGGCCUGAGCUGGACGGAAGCUUGUACAUGAGGAUCACCCAUGUUCAUGUGCAGGCUUUUUGCUCGUCUUGUG [salish99_mir208a_modof_jandersonlee] (puzzle: Sensor for hsa-mir-208a)	–	–	–	18.8	19.8	23.4
CGUCCGGCCUGUGCUGGCCGGAUGCAUGUACAUGAGGAUCACCCAUGUUCAUGUGCAGGCUUUUUGCUCGUCUUGUG [salish99_mir208a_r3_008] (puzzle: Sensor for hsa-mir-208a)	–	–	–	11.9	19.2	23.1
CGUCGCUGUCGAGAGGAUAUGCGGUGAUGGACAUGAGGAUCACCCAUGUUAGCGAUAGCAUCGCGGCAGAAGGCUCUUACGACUG [Soteed Omei mod 28] (puzzle: Same State 2)	–	–	–	19.8	18.6	23.7
CGUCGUUUGAUAGGAUAUCGCUUUGCAUGAGGAUCACCCAUGUUUACCACGCUGGUUUUUCUUUCCGAGAAGGAUUCUGAUGUU [salish99_SSNG02_r04_024] (Eterna round: R96, puzzle: Same State NG 2)	42	29.2	39.6	–	–	–
CGUCGUUUGGUAGGAUAUCGCUAUACAUGAGGAUCACCCAUGUUUACCACGCUGGUUUUUCAUACCGAGAAGGAUUCUGAUGUU [salish99_SSNG02_r04_017] (Eterna round: R96, puzzle: Same State NG 2)	16	14.9	19.8	–	–	–
CGUUCAUACUCAGGACGGAGAGUAGAGGAACAUGAGGAUCACCCAUGUAUGAGCUUUUUGCUCGUCAUUAACAGUAG [JR_SHM208a_Sub012] (puzzle: Sensor for hsa-mir-208a)	–	–	–	43.4	61.8	81.2
CUACUACAUGAGGAUCACCCAUGUUAUAGUGAUGCAGGAUAUGUGUGACCAGAAGAUGAAACAGAAGGGCAAAGAA [JR_SS!_Sub001] (puzzle: Same State 1)	–	–	–	33.1	31.4	30.1
CUACUACAUGAGGAUCACCCAUGUUGUAGUGAUGCAGGAUAUGUGUGACCAGAAGAUGAAACAGAAGGGCAAAGAA [JR_SS!_Sub002] (puzzle: Same State 1)	–	–	–	15.9	13.5	15.2
